Results from PMC4021819, “LIM homeodomain transcription factor Isl1 directs normal pyloric development by targeting Gata3”.

T1: Isl1 C-terminal fragment (LIM domains removed) (UniProt P61372 134-349)
T1 sequence: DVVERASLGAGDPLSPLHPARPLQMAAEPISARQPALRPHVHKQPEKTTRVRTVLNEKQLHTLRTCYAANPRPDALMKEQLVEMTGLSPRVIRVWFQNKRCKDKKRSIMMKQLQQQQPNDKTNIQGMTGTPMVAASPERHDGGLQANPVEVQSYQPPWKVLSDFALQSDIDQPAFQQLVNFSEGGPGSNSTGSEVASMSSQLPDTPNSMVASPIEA

B1: Gata3-P1 number 1 wild type (dsDNA)
DNA 1: GTCCTCTTTCCCAATTACCCACTGTCAGTC
DNA 2: GACTGACAGTGGGTAATTGGGAAAGAGGAC
B2: Gata3-P1 number 3 mutant (dsDNA)
DNA 1: CCTGGAGGGGCCTCGGCGATATTTTGTTTT
DNA 2: AAAACAAAATATCGCCGAGGCCCCTCCAGG
B3: Gata3-P1 number 1 mutant (dsDNA)
DNA 1: GTCCTCTTTCCCACGGCCCCACTGTCAGTC
DNA 2: GACTGACAGTGGGGCCGTGGGAAAGAGGAC
B4: Gata3-P1 number 3 wild type (dsDNA)
DNA 1: CCTGGAGGGGCCTATTAGATATTTTGTTTT
DNA 2: AAAACAAAATATCTAATAGGCCCCTCCAGG

Key:
[1] = target: T1, Isl1 C-terminal fragment (LIM domains …); assay: EMSA; self-competed by 100x unlabeled; blocked by Isl1 antibody 40.2D6; 40 mM KCl, 15 mM HEPES pH 7.9, 1 mM EDTA, 0.5 mM DTT, 5% glycerol, 50 ng/ul poly(dI-dC), 2 nM probe, 20 ul, room temperature 20 min; 6% native PAGE in 0.5x TBE; settings: protein: ivt; label: 5'-biotin (probe); blunt
[2] = target: T1, Isl1 C-terminal fragment (LIM domains …); assay: competition; 100x unlabeled mutant vs site 3 probe; 40 mM KCl, 15 mM HEPES pH 7.9, 1 mM EDTA, 0.5 mM DTT, 5% glycerol, 50 ng/ul poly(dI-dC), 2 nM probe, 20 ul, room temperature 20 min; 6% native PAGE in 0.5x TBE; settings: protein: ivt; blunt
[3] = target: T1, Isl1 C-terminal fragment (LIM domains …); assay: competition; 100x unlabeled mutant vs site 1 probe; 40 mM KCl, 15 mM HEPES pH 7.9, 1 mM EDTA, 0.5 mM DTT, 5% glycerol, 50 ng/ul poly(dI-dC), 2 nM probe, 20 ul, room temperature 20 min; 6% native PAGE in 0.5x TBE; settings: protein: ivt; blunt

| Binder | binding result [1] | also measured |
| --- | --- | --- |
| B1 | binds |  |
| B2 |  | binding result [2]: no binding |
| B3 |  | binding result [3]: no binding |
| B4 | binds |  |
